How the values were obtained:
MyD88 = assay: FBG induction of IL-6 in RA synovial fibroblasts infected with adenovirus expressing dominant negative MyD88; assay type: cell-based, human; settings: FBG 1 μM, 24 h; GFP control virus without effect
From the text: Recombinant, replication-deficient adenoviral vectors encoding wild type MyD88 (AdMyD88 wt), dominant-negative forms of MyD88 (AdMyD88dn) and the GFP control (AdGFP) were constructed in-house. A description of the synthesis of these viruses is in Andreakos (2004). All viruses used in this study are E1/E3 deleted, belong to the Ad5 serotype. Viruses were propagated in 293 human embryonic kidney cells, purified by ultracentrifugation through two cesium chloride gradients, and viral titers determined by plaque assay as previously described (Sacre (2007)).
For adenoviral gene transfer experiments, human RA synovial fibroblasts were incubated with adenoviral vectors at a multiplicity of infection of 100, washed after 2 hours, cultured in complete medium for 24 hours, then stimulated for 24 hours, after which time supernatants were collected.
(§1) Supernatants were subsequently examined for the presence of the cytokines TNF-α, IL-6, and IL-8 by enzyme-linked immunosorbent assay (ELISA) according to the manufacturer's instructions. Absorbance was read on a spectrophotometric ELISA plate reader (Labsystems Multiscan Biochromic, Vantaa, Finland) and analyzed using the Ascent software program (Thermo Labsystems, Altrincham, UK).

[1] = test system: knee joint of TLR2 and TLR4 null mice; assay: Intra-articular injection of FBG in TLR2 and TLR4 null mice; assay type: in vivo; settings: 1 μg FBG intra-articular, 3 days
From the text: (§2) Homozygous TLR2 and TLR4 deficient mice on a C57BL/6 background (an inbred strain of mice with a black coat) were obtained from B&K Universal (Hull, UK) Hoshino (1999) and Takeuchi (1999). Homozygous MyD88 deficient mice on a C57BL/6 background were provided by the Sanger Institute (Cambridge, UK). Age matched congenic inbred wild type C57B/L6 mice were obtained from Charles River (Margate, UK). For isolation of mouse embryo fibroblasts one female aged 8-10 weeks was mated with two males aged 8-10 weeks. For isolation of bone marrow derived macrophages mice were female and between 10-12 weeks of age at the time of experimentation.
Wild type mice were anesthetized by intraperitoneal injection of 150 μl of Hypnorm diluted 1:10 in sterile water and then injected with 100 ng, 1 or 3 μg FBG in 10 μl of sterile PBS into the right knee joint using a sterile 33-gauge microcannula. Control mice received an injection of 10 μl PBS alone or were not injected.
On days 3 and 7, mice were euthanized, the knee joints were excised and fixed in 10% (volume/volume) buffered formalin, decalcified, with 10% EDTA and processed to paraffin.
Coronal tissue sections (4 μm) were cut at 7 depths throughout the joint; 80 μm apart and stained with hematoxylin and eosin or Safranin-O to assess joint pathology. Histopathologic changes were scored using the following parameters as described in Van Lent (2006). […]

RA synovial fibroblasts = assay: Cytokine synthesis in RA synovial fibroblasts stimulated with tenascin-C, FBG or LPS; assay type: cell-based, human; settings: 24 h; LPS 10 ng/ml
From the text: RA membrane cells (representing a mixed population of all synovial cell types) were isolated from synovial membranes obtained from patients undergoing joint replacement surgery as previously described (Brennan (1989)). RA synovial fibroblasts were isolated from the mixed population of RA membrane cells as previously described (Brennan (1989)). The study was approved by the local Trust ethics committee (Riverside NHS Research Committee), and waste tissue (synovium after joint replacement surgery) was obtained only after receiving signed informed consent from the patient and anonymyzing the tissue to protect patient identity.
Immediately after isolation, RA membrane cells and macrophages were cultured at 1×10^5 cells/well in RPMI 1640 containing 10% (v/v) FBS and 100 U/ml (Units/ml) penicillin/streptomycin in 96-well tissue culture plates for 24 hours before stimulation. Synovial fibroblasts (used only at either passage number 2 or 3) were cultured at 1×10^4 cells/well in DMEM containing 10% (v/v) FBS and 100 U/ml penicillin/streptomycin in 96-well tissue culture plates for 24 hours before stimulation.
(§3) Cells were incubated for 24 hours at 37° C. with the indicated doses of tenascin-C and recombinant tenascin-C fragments (1.0 μM-1.0 nM). Cells were also stimulated where indicated with LPS (1 ng/ml for human macrophages, 10 ng/ml for human fibroblasts, RA membrane cells and HEKs, 100 ng/ml for MEFS and BMDMs and 10 ng/ml for HEKS), PAM3 (10 ng/ml for human macrophages, human fibroblasts, and HEKs, 100 ng/ml for MEFs and BMDMs), murine IL-1 (5 ng/ml for MEFS) and murine TNF-α (100 ng/ml for MEFS). Unless specifically stated otherwise rough LPS was used for in vitro studies.
Where stated, cells were pre-incubated with 10 μg/ml anti-CD14 antibody, 10 μg/ml IL1 receptor antagonist, 10 μg/ml anti-TLR2 antibody, 25 μg/ml anti-TLR4 antibody, 10 or 25 μg/ml isotype control antibody, 25 μg/ml polymyxin B, or 1 μg/ml msbB LPS, for 30 minutes at 37° C. before stimulation. Where stated, recombinant tenascin-C and FBG, and LPS were boiled for 15 minutes before addition to cells
as §1

[2] = test system: TLR2 or TLR4 deficient embryonic fibroblasts and bone marrow derived macrophages; assay: Cytokine synthesis in embryonic fibroblasts and macrophages from TLR2 or TLR4 deficient mice; assay type: cell-based, mouse; settings: 24 h
From the text: as §2
MEFs express high levels of mRNA of all 9 murine TLRs and are specifically and highly responsive to TLR ligand activation. […] MEFs were isolated from d13 embryos harvested from age-matched, pregnant female wild type, TLR2, TLR4 and null mice (as described in Todaro (1963)). Fibroblasts were cultured at 2×10^4 cells/well in DMEM containing 10% (v/v) FBS and 100 U/ml penicillin/streptomycin in 96-well tissue culture plates for 24 hours before stimulation.
BMDMs were derived by aspirating the femurs of age matched female wild type, TLR2 and TLR4 null mice as described in Butler (1999)) and culturing the cells for 7 days in DMEM, 20% (v/v) FBS, 10 ml/L (v/v) antibiotic-antimycotic solution PSA, 50 μM Mercaptoethanol and 10 ng/ml M-CSF. Macrophages were then cultured at 1×10^5 cells/well in DMEM, 20% (v/v) FBS, 10 ml/L (v/v) antibiotic-antimycotic solution PSA, 50 μM β-Mercaptoethanol in 96-well tissue culture plates for 24 hours before stimulation.
as §3, §1

B1: FBG: recombinant fibrinogen-like globe, 227 amino acid globular domain at the C terminal of tenascin-C (protein)
chain: GLLYPFPKDCSQAMLNGDTTSGLYTIYLNGDKAEALEVFCDMTSDGGGWIVFLRRKNGRENFYQNWKAYAAGFGDRREEFWLGLDNLNKITAQGQYELRVDLRDHGETAFAVYDKFSVGDAKTRYKLKVEGYSGTAGDSMAYHNGRSFSTFDKDTDSAITNCALSYKGAFWYRNCHRVNLMGRYGDNNHSQGVNWFHWKGHEHSIQFAEMKLRPSNFRNLEGRRKRA
induction of IL-6 in synovial fibroblasts expressing dominant negative MyD88 (MyD88): abolished
joint inflammation in TLR2 null mice [1]: able to induce
IL-6 synthesis in RA synovial fibroblasts (RA synovial fibroblasts): stimulated
IL-8 synthesis in RA synovial fibroblasts (RA synovial fibroblasts): did not induce
cytokine synthesis in cells from TLR2 deficient mice [2]: unaffected
cytokine synthesis in cells from TLR4 deficient mice [2]: does not stimulate

From US20200362024A1, “BIOLOGICAL MATERIALS AND USES THEREOF” (IMPERIAL INNOVATIONS LIMITED, priority 2009, published 2020)
